Reference: patent publication US20250051474A1, “ANTI-CD97 ANTIBODIES AND ANTIBODY-DRUG CONJUGATES” (New York University, priority 2023, published 2025)

Experiments:
OCI-AML3 cells = experiment: Cell-killing assay (Annexin V staining, Incucyte); type: cell-based, human
Method: (§1) For the cell viability assay, the cells were mixed with ADC (20,000 cells/well), and incubated at 37° C. with 5% CO2 for 3 days. After incubation, cell viability was assessed by PrestoBlue assay (Thermo Fisher), following the manufacturer's protocol. The fluorescence was measured using a FlexStation 3 multi-mode microplate reader (Molecular Devices). Dose-response curves and respective ECso were generated using Prism software (GraphPad). For the cell-killing assay, a 96-well plate was coated with 0.1% poly-D-lysine. The cells were mixed with a diluted Incucyte® Annexin V Green Dye (Sartorius) and ADC (13,500 cells/well), and incubated in an Incucyte live-cell analysis system (Sartorius) at 37° C. with 5% CO2 for 4 days. The percentage of dead cells was analyzed using Incucyte Software (Sartorious).

[1] = system: human peripheral blood mononuclear cells (PBMCs); experiment: Cell-killing assay (Annexin V staining, Incucyte); type: cell-based; settings: 4 days incubation
Method: as §1

B1: A8S293C-PBD (conjugate)
VH: EVQLVESGGGLVQPGGSLRLSCAASGFTISSYSIHWVRQAPGKGLEWVASISPYYGSTSYADSVKGRFTISADTSKNTAYLQMNSLRAEDTAVYYCARSWYYYEQNPYWYQKEEQALDYWGQGTLVTVSS
VL: DIQMTQSPSSLSASVGDRVTITCRASQSVSSAVAWYQQKPGKAPKLLIYSASSLYSGVPSRFSGSRSGTDFTLTISSLQPEDFATYYCQQSVYSPVTFGQGTKVEIKRTV
cell-killing effect (cell death, Annexin V) (OCI-AML3 cells; 4 days incubation): potent cell-killing effect
specificity of cell killing (OCI-AML3 cells; OCI-AML3 (hCD97 high) versus ExpiCHO (hCD97-null), 4 days): specifically killed cells expressing high levels of CD97
killing of PBMC cells [1]: did not kill PBMC cells
